Measured values: PMC3942486 (2014)
One block for each binder: values may come before it.

Biological target: BCL6-POZ domain (residues 7 to 128 of human BCL6, C8Q, C67R, C84N) (human, UniProt P41182 7-128, cysteine8 mutated to glutamine | cysteine67 mutated to arginine | cysteine84 …)
Assay: FP

Kd: 43 µM
B1: homophenylalanine-SMRT peptide, labelled with BODIPY TMR (peptide)
chain: LVATVKEAGRSIXEIPR
modifications: homophenylalanine in place of histidine1426; BODIPY TMR dye coupled via the amino-terminal cysteine

Kd: 41 µM
B2: styryl-SMRT peptide, labelled with BODIPY TMR (peptide)
chain: LVATVKEAGRSIXEIPR
modifications: styrylalanine in place of histidine1426; BODIPY TMR dye coupled via the amino-terminal cysteine
